Laboratory results taken from IntAct's records for PubMed 35512704.

B1: Speckle-type POZ protein (Homo sapiens), O43791 (parent)
chain: MSRVPSPPPPAEMSSGPVAESWCYTQIKVVKFSYMWTINNFSFCREEMGEVIKSSTFSSGANDKLKWCLRVNPKGLDEESKDYLSLYLLLVSCPKSEVRAKFKFSILNAKGEETKAMESQRAYRFVQGKDWGFKKFIRRDFLLDEANGLLPDDKLTLFCEVSVVQDSVNISGQNTMNMVKVPECRLADELGGLWENSRFTDCCLCVAGQEFQAHKAILAARSPVFSAMFEHEMEESKKNRVEINDVEPEVFKEMMCFIYTGKAPNLDKMADDLLAAADKYALERLKVMCEDALCSNLSVENAAEILILADLHSADQLKTQAVDFINYHASDVLETSGWKSMVVSHPHLVAEAYRSLASAQCPFLGPPRKRLKQS

Variants of: B1
Conditions: with b2mg_human B2M

| Variant | effect of a mutation on the interaction |
| --- | --- |
| MSRVPSPPPPAEMSSGPVAESWCYTQIKVVKFSYMWTINNFSFCREEMGEVIKSSTFSSGANDKLKWCLRVNPKGLDEESKDYLSLYLLLVSCPKSEVRAKFKFSILNAKGEETKAMESQRAYRFVQGKDWGVKKFIRRDFLLDEANGLLPDDKLTLFCEVSVVQDSVNISGQNTMNMVKVPECRLADELGGLWENSRFTDCCLCVAGQEFQAHKAILAARSPVFSAMFEHEMEESKKNRVEINDVEPEVFKEMMCFIYTGKAPNLDKMADDLLAAADKYALERLKVMCEDALCSNLSVENAAEILILADLHSADQLKTQAVDFINYHASDVLETSGWKSMVVSHPHLVAEAYRSLASAQCPFLGPPRKRLKQS [F133V] | with no effect |

Variants of: B1
Conditions: with bap1_human BAP1, Q92560

| Variant | effect of a mutation on the interaction |
| --- | --- |
| MSRVPSPPPPAEMSSGPVAESWCYTQIKVVKFSYMWTINNFSFCREEMGEVIKSSTFSSGANDKLKWCLRVNPKGLDEESKDYLSLYLLLVSCPKSEVRAKFKFSILNAKGEETKAMESQRAYRFVQGKDWGVKKFIRRDFLLDEANGLLPDDKLTLFCEVSVVQDSVNISGQNTMNMVKVPECRLADELGGLWENSRFTDCCLCVAGQEFQAHKAILAARSPVFSAMFEHEMEESKKNRVEINDVEPEVFKEMMCFIYTGKAPNLDKMADDLLAAADKYALERLKVMCEDALCSNLSVENAAEILILADLHSADQLKTQAVDFINYHASDVLETSGWKSMVVSHPHLVAEAYRSLASAQCPFLGPPRKRLKQS [F133V] | with no effect |

Variants of: B1
Conditions: with bcor_human BCOR

| Variant | effect of a mutation on the interaction |
| --- | --- |
| MSRVPSPPPPAEMSSGPVAESWCYTQIKVVKFSYMWTINNFSFCREEMGEVIKSSTFSSGANDKLKWCLRVNPKGLDEESKDYLSLYLLLVSCPKSEVRAKFKFSILNAKGEETKAMESQRAYRFVQGKDWGVKKFIRRDFLLDEANGLLPDDKLTLFCEVSVVQDSVNISGQNTMNMVKVPECRLADELGGLWENSRFTDCCLCVAGQEFQAHKAILAARSPVFSAMFEHEMEESKKNRVEINDVEPEVFKEMMCFIYTGKAPNLDKMADDLLAAADKYALERLKVMCEDALCSNLSVENAAEILILADLHSADQLKTQAVDFINYHASDVLETSGWKSMVVSHPHLVAEAYRSLASAQCPFLGPPRKRLKQS [F133V] | with no effect |

Variants of: B1
Conditions: with birc2_human BIRC2, Q13490

| Variant | effect of a mutation on the interaction |
| --- | --- |
| MSRVPSPPPPAEMSSGPVAESWCYTQIKVVKFSYMWTINNFSFCREEMGEVIKSSTFSSGANDKLKWCLRVNPKGLDEESKDYLSLYLLLVSCPKSEVRAKFKFSILNAKGEETKAMESQRAYRFVQGKDWGVKKFIRRDFLLDEANGLLPDDKLTLFCEVSVVQDSVNISGQNTMNMVKVPECRLADELGGLWENSRFTDCCLCVAGQEFQAHKAILAARSPVFSAMFEHEMEESKKNRVEINDVEPEVFKEMMCFIYTGKAPNLDKMADDLLAAADKYALERLKVMCEDALCSNLSVENAAEILILADLHSADQLKTQAVDFINYHASDVLETSGWKSMVVSHPHLVAEAYRSLASAQCPFLGPPRKRLKQS [F133V] | with no effect |

Variants of: B1
Conditions: with brd4_human BRD4, O60885

| Variant | effect of a mutation on the interaction |
| --- | --- |
| MSRVPSPPPPAEMSSGPVAESWCYTQIKVVKFSYMWTINNFSFCREEMGEVIKSSTFSSGANDKLKWCLRVNPKGLDEESKDYLSLYLLLVSCPKSEVRAKFKFSILNAKGEETKAMESQRAYRFVQGKDWGVKKFIRRDFLLDEANGLLPDDKLTLFCEVSVVQDSVNISGQNTMNMVKVPECRLADELGGLWENSRFTDCCLCVAGQEFQAHKAILAARSPVFSAMFEHEMEESKKNRVEINDVEPEVFKEMMCFIYTGKAPNLDKMADDLLAAADKYALERLKVMCEDALCSNLSVENAAEILILADLHSADQLKTQAVDFINYHASDVLETSGWKSMVVSHPHLVAEAYRSLASAQCPFLGPPRKRLKQS [F133V] | with no effect |

Variants of: B1
Conditions: with baba2_human BABAM2, Q9NXR7

| Variant | effect of a mutation on the interaction |
| --- | --- |
| MSRVPSPPPPAEMSSGPVAESWCYTQIKVVKFSYMWTINNFSFCREEMGEVIKSSTFSSGANDKLKWCLRVNPKGLDEESKDYLSLYLLLVSCPKSEVRAKFKFSILNAKGEETKAMESQRAYRFVQGKDWGVKKFIRRDFLLDEANGLLPDDKLTLFCEVSVVQDSVNISGQNTMNMVKVPECRLADELGGLWENSRFTDCCLCVAGQEFQAHKAILAARSPVFSAMFEHEMEESKKNRVEINDVEPEVFKEMMCFIYTGKAPNLDKMADDLLAAADKYALERLKVMCEDALCSNLSVENAAEILILADLHSADQLKTQAVDFINYHASDVLETSGWKSMVVSHPHLVAEAYRSLASAQCPFLGPPRKRLKQS [F133V] | with no effect |

Variants of: B1
Conditions: with btg1_human BTG1, P62324

| Variant | effect of a mutation on the interaction |
| --- | --- |
| MSRVPSPPPPAEMSSGPVAESWCYTQIKVVKFSYMWTINNFSFCREEMGEVIKSSTFSSGANDKLKWCLRVNPKGLDEESKDYLSLYLLLVSCPKSEVRAKFKFSILNAKGEETKAMESQRAYRFVQGKDWGVKKFIRRDFLLDEANGLLPDDKLTLFCEVSVVQDSVNISGQNTMNMVKVPECRLADELGGLWENSRFTDCCLCVAGQEFQAHKAILAARSPVFSAMFEHEMEESKKNRVEINDVEPEVFKEMMCFIYTGKAPNLDKMADDLLAAADKYALERLKVMCEDALCSNLSVENAAEILILADLHSADQLKTQAVDFINYHASDVLETSGWKSMVVSHPHLVAEAYRSLASAQCPFLGPPRKRLKQS [F133V] | with no effect |

Variants of: B1
Conditions: with btk_human BTK

| Variant | effect of a mutation on the interaction |
| --- | --- |
| MSRVPSPPPPAEMSSGPVAESWCYTQIKVVKFSYMWTINNFSFCREEMGEVIKSSTFSSGANDKLKWCLRVNPKGLDEESKDYLSLYLLLVSCPKSEVRAKFKFSILNAKGEETKAMESQRAYRFVQGKDWGVKKFIRRDFLLDEANGLLPDDKLTLFCEVSVVQDSVNISGQNTMNMVKVPECRLADELGGLWENSRFTDCCLCVAGQEFQAHKAILAARSPVFSAMFEHEMEESKKNRVEINDVEPEVFKEMMCFIYTGKAPNLDKMADDLLAAADKYALERLKVMCEDALCSNLSVENAAEILILADLHSADQLKTQAVDFINYHASDVLETSGWKSMVVSHPHLVAEAYRSLASAQCPFLGPPRKRLKQS [F133V] | with no effect |

Variants of: B1
Conditions: with ccnd1_human CCND1, P24385

| Variant | effect of a mutation on the interaction |
| --- | --- |
| MSRVPSPPPPAEMSSGPVAESWCYTQIKVVKFSYMWTINNFSFCREEMGEVIKSSTFSSGANDKLKWCLRVNPKGLDEESKDYLSLYLLLVSCPKSEVRAKFKFSILNAKGEETKAMESQRAYRFVQGKDWGVKKFIRRDFLLDEANGLLPDDKLTLFCEVSVVQDSVNISGQNTMNMVKVPECRLADELGGLWENSRFTDCCLCVAGQEFQAHKAILAARSPVFSAMFEHEMEESKKNRVEINDVEPEVFKEMMCFIYTGKAPNLDKMADDLLAAADKYALERLKVMCEDALCSNLSVENAAEILILADLHSADQLKTQAVDFINYHASDVLETSGWKSMVVSHPHLVAEAYRSLASAQCPFLGPPRKRLKQS [F133V] | with no effect |

Variants of: B1
Conditions: with ccnd2_human CCND2, P30279

| Variant | effect of a mutation on the interaction |
| --- | --- |
| MSRVPSPPPPAEMSSGPVAESWCYTQIKVVKFSYMWTINNFSFCREEMGEVIKSSTFSSGANDKLKWCLRVNPKGLDEESKDYLSLYLLLVSCPKSEVRAKFKFSILNAKGEETKAMESQRAYRFVQGKDWGVKKFIRRDFLLDEANGLLPDDKLTLFCEVSVVQDSVNISGQNTMNMVKVPECRLADELGGLWENSRFTDCCLCVAGQEFQAHKAILAARSPVFSAMFEHEMEESKKNRVEINDVEPEVFKEMMCFIYTGKAPNLDKMADDLLAAADKYALERLKVMCEDALCSNLSVENAAEILILADLHSADQLKTQAVDFINYHASDVLETSGWKSMVVSHPHLVAEAYRSLASAQCPFLGPPRKRLKQS [F133V] | with no effect |

Variants of: B1
Conditions: with ccnd3_human CCND3, P30281

| Variant | effect of a mutation on the interaction |
| --- | --- |
| MSRVPSPPPPAEMSSGPVAESWCYTQIKVVKFSYMWTINNFSFCREEMGEVIKSSTFSSGANDKLKWCLRVNPKGLDEESKDYLSLYLLLVSCPKSEVRAKFKFSILNAKGEETKAMESQRAYRFVQGKDWGVKKFIRRDFLLDEANGLLPDDKLTLFCEVSVVQDSVNISGQNTMNMVKVPECRLADELGGLWENSRFTDCCLCVAGQEFQAHKAILAARSPVFSAMFEHEMEESKKNRVEINDVEPEVFKEMMCFIYTGKAPNLDKMADDLLAAADKYALERLKVMCEDALCSNLSVENAAEILILADLHSADQLKTQAVDFINYHASDVLETSGWKSMVVSHPHLVAEAYRSLASAQCPFLGPPRKRLKQS [F133V] | with no effect |

Variants of: B1
Conditions: with cd44_human CD44, P16070

| Variant | effect of a mutation on the interaction |
| --- | --- |
| MSRVPSPPPPAEMSSGPVAESWCYTQIKVVKFSYMWTINNFSFCREEMGEVIKSSTFSSGANDKLKWCLRVNPKGLDEESKDYLSLYLLLVSCPKSEVRAKFKFSILNAKGEETKAMESQRAYRFVQGKDWGVKKFIRRDFLLDEANGLLPDDKLTLFCEVSVVQDSVNISGQNTMNMVKVPECRLADELGGLWENSRFTDCCLCVAGQEFQAHKAILAARSPVFSAMFEHEMEESKKNRVEINDVEPEVFKEMMCFIYTGKAPNLDKMADDLLAAADKYALERLKVMCEDALCSNLSVENAAEILILADLHSADQLKTQAVDFINYHASDVLETSGWKSMVVSHPHLVAEAYRSLASAQCPFLGPPRKRLKQS [F133V] | with no effect |

Variants of: B1
Conditions: with cd79b_human CD79B

| Variant | effect of a mutation on the interaction |
| --- | --- |
| MSRVPSPPPPAEMSSGPVAESWCYTQIKVVKFSYMWTINNFSFCREEMGEVIKSSTFSSGANDKLKWCLRVNPKGLDEESKDYLSLYLLLVSCPKSEVRAKFKFSILNAKGEETKAMESQRAYRFVQGKDWGVKKFIRRDFLLDEANGLLPDDKLTLFCEVSVVQDSVNISGQNTMNMVKVPECRLADELGGLWENSRFTDCCLCVAGQEFQAHKAILAARSPVFSAMFEHEMEESKKNRVEINDVEPEVFKEMMCFIYTGKAPNLDKMADDLLAAADKYALERLKVMCEDALCSNLSVENAAEILILADLHSADQLKTQAVDFINYHASDVLETSGWKSMVVSHPHLVAEAYRSLASAQCPFLGPPRKRLKQS [F133V] | with no effect |

Variants of: B1
Conditions: with cdc73_human CDC73, Q6P1J9

| Variant | effect of a mutation on the interaction |
| --- | --- |
| MSRVPSPPPPAEMSSGPVAESWCYTQIKVVKFSYMWTINNFSFCREEMGEVIKSSTFSSGANDKLKWCLRVNPKGLDEESKDYLSLYLLLVSCPKSEVRAKFKFSILNAKGEETKAMESQRAYRFVQGKDWGVKKFIRRDFLLDEANGLLPDDKLTLFCEVSVVQDSVNISGQNTMNMVKVPECRLADELGGLWENSRFTDCCLCVAGQEFQAHKAILAARSPVFSAMFEHEMEESKKNRVEINDVEPEVFKEMMCFIYTGKAPNLDKMADDLLAAADKYALERLKVMCEDALCSNLSVENAAEILILADLHSADQLKTQAVDFINYHASDVLETSGWKSMVVSHPHLVAEAYRSLASAQCPFLGPPRKRLKQS [F133V] | with no effect |

Variants of: B1
Conditions: with cdk4_human CDK4, P11802

| Variant | effect of a mutation on the interaction |
| --- | --- |
| MSRVPSPPPPAEMSSGPVAESWCYTQIKVVKFSYMWTINNFSFCREEMGEVIKSSTFSSGANDKLKWCLRVNPKGLDEESKDYLSLYLLLVSCPKSEVRAKFKFSILNAKGEETKAMESQRAYRFVQGKDWGVKKFIRRDFLLDEANGLLPDDKLTLFCEVSVVQDSVNISGQNTMNMVKVPECRLADELGGLWENSRFTDCCLCVAGQEFQAHKAILAARSPVFSAMFEHEMEESKKNRVEINDVEPEVFKEMMCFIYTGKAPNLDKMADDLLAAADKYALERLKVMCEDALCSNLSVENAAEILILADLHSADQLKTQAVDFINYHASDVLETSGWKSMVVSHPHLVAEAYRSLASAQCPFLGPPRKRLKQS [F133V] | with no effect |
